Data reported in article PMC10204293, “S100A6 inhibits MDM2 to suppress breast cancer growth and enhance sensitivity to chemotherapy” (Breast Cancer Research : BCR, 2023).

Target: T1, HA-MDM2 full-length (1–491) (human, UniProt Q00987 1-491)
T1 construct: Cloned into a T7 promotor-HA expression vector; also called HA-tagged full-length MDM2; source: E. coli BL21 (DE3), purified (His-tag purification kit)
Assay: pull-down; about 100 µg of a mixture of GST, GST-S100A6 or its fragments with HA-MDM2 or its fragments on 100 µL glutathione agarose, overnight at 4 °C; blot with anti-HA
Conditions: both partners purified

binding result | Binder
binds | GST-S100A6 EF-hand I (1–47) (domain or fragment, S100A6, human, EF-hand I, residues 1–47; also called N-terminal EF-hand of S100A6; source: E. coli BL21 (DE3), purified (GST-tag purification kit)) not shown
binds | GST-S100A6 EF-hand II (48–90) (domain or fragment, S100A6, human, EF-hand II, residues 48–90; also called C-terminal EF-hand of S100A6; source: E. coli BL21 (DE3), purified (GST-tag purification kit)) not shown
